Measured values published in patent US20240391950A1, “PEPTIDE CROSSLINKING AGENT AND CROSSLINKED PEPTIDE WHICH IS CROSSLINKED USING SAID CROSSLINKING AGENT” (Kagoshima University, priority 2020, published 2024).
One block for each molecule: values may come before it. Starred links: 1 amine or outer side, 2 acyl side, 3 side chain; linkers in the order of their positions; H or OH if unused. Positions of bridges follow the written chain, without caps; N, C: chain ends. Residues, ends and D or L forms follow the SMILES beside them. CH2COCH2 = O=C(C[*:1])C[*:2]

Columns and labels:
human serum-derived IgG = experiment: Dynamic binding capacity (DBC) measurement and alkali resistance evaluation of peptide-immobilized column; details: initial value; 1 mg peptide on 1-mL column, 1 mL/min
Description: Five mL of 1 mM hydrochloric acid was sent to an NHS-activated prepacked column having a volume of 1 mL, and an isopropanol solution in the column was removed. Next, a 10.0 mg/mL peptide solution (dissolved in 100 μL of DMSO) was diluted with a coupling solution (20 mM carbonate buffer, 50 mM sodium chloride, pH 8.3) by 10-fold, 1 mL of the dilution liquid was sent, and immobilization was performed at room temperature for 4 hours. Thereafter, unreacted NHS was blocked by 5 mL of 1 M Tris (pH 8.0) at room temperature for 1 hour. Thereafter, washing with 5 mL of an aqueous 0.1 N NaOH solution was made. Finally, 10 mL of a PBS solution (20 mM phosphate buffer, 150 mM sodium chloride, pH 7.4) was sent, and used in chromatography evaluation.
A column where the amount of immobilization of a peptide was 1 mg was produced by the same method as described above. The column produced was equilibrated with PBS, and 1 mg/mL human serum-derived IgG (manufactured by Sigma-Aldrich Co. LLC) dissolved in PBS was sent at a flow rate of 1 mL/min (retention time 1 min). DBC was indicated as one determined from the amount of a protein added at the time of point where 10% of the absorbance at 280 nm of the sample added was leaked.
Next, 5 mL of an aqueous 0.1 N sodium hydroxide solution was sent to the 1-mL column where 1 mg of the peptide was immobilized. Thereafter, washing with PBS was performed. This cycle was repeated 30 times for the 1,1-dichloroacetone-crosslinked cyclic peptide, and was repeated 10 times for the 1,1-dichloropinacolin-crosslinked cyclic peptide. DBC measurement was performed at a flow rate of 1 mL/min at the 1st to 5th and 10th times of the cycles, and further performed at the 20th and 30th times of the cycles with respect to the 1,1-dichloroacetone-crosslinked cyclic peptide, and thus alkali resistance was evaluated. The variation in DBC was determined based on the measurement results under the assumption that DBC immediately after column production was 100% according to Table 2.
Five mL of a 0.1 M sodium hydroxide solution was sent to the produced 1-mL column where the amount of immobilization of a peptide was 1 mg, and thereafter washing with 5 mL of PBS was performed. These operations were defined as one cycle and treatment of washing with aqueous NaOH solution/washing with PBS was performed 1 to 30 times, and thereafter DBC measurement was performed at a flow rate of 1 mL/min at the intended number of times (1, 2, 3, 4, 5, 10, 20, 30 times).

IgG = details: Patent Literature 2; read-out: Kd (affinity with IgG); cited from earlier work
human IgG1 = human IgG1 (Homo sapiens, UniProt P01857); experiment: SPR (BIAcore T200) measurement of binding affinity of crosslinked cyclic peptide to immobilized IgG
Chain of human IgG1 (P01857 1-328 limits assumed): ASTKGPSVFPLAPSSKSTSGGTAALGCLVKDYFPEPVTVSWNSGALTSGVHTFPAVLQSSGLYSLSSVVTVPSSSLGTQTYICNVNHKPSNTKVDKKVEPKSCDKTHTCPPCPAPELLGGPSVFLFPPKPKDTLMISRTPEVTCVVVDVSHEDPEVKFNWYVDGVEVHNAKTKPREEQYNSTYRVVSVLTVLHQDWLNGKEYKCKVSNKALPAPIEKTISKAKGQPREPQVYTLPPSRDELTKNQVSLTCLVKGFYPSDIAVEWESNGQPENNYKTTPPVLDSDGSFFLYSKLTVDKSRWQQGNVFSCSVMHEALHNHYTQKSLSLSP
Description: The affinity analysis was performed by the following method. First, a CM5 sensor chip was installed on BIAcoreT200 (GE healthcare), and 0.4 M 1-ethyl-3-(3-dimethylaminopropyl)carbodiimide (EDC) and a 0.1 M sulfo-N-hydroxysuccinimide (sulfo-NHS) solution mixed in equivalent amounts were injected to the sensor chip at a flow rate of […], to thereby activate the sensor chip. Thereafter, IgG was immobilized onto the sensor chip under a condition of a pH of 5.5 (10 mM Na acetate). An HBS-EP buffer (10 mM HEPES, 150 mM NaCl, 0.005% Tween 20, 3 mM EDTA, pH 7.4) was used in measurement, and 15.625, 31.2, 62.5, 125, 250, and 500 nM of peptides were each injected at a flow rate of […] for 180 seconds, to thereby monitor binding reaction. When dissociation reaction was measured, only the buffer was injected for 600 seconds. The interaction parameter was analyzed with BIAevaluation T100 software.
IgG-binding peptide derivatives compared and evaluated are illustrated in FIG. 1.

[1] = target: human serum-derived IgG (manufactured by Sigma-Aldrich Co. LLC); experiment: 1 mL column with 1 mg peptide immobilised, human serum IgG 1 mg/mL at 1 mL/min; 3 washes with 0.1 N NaOH
[2] = target: human serum-derived IgG (manufactured by Sigma-Aldrich Co. LLC); experiment: 1 mL column with 1 mg peptide immobilised, human serum IgG; 1 wash with 0.1 N NaOH
[3] = target: human serum-derived IgG (manufactured by Sigma-Aldrich Co. LLC); experiment: 1 mL column with 1 mg peptide immobilised, human serum IgG 1 mg/mL at 1 mL/min; 1 wash with 0.1 N NaOH
[4] = target: human serum-derived IgG (manufactured by Sigma-Aldrich Co. LLC); experiment: 1 mL column with 1 mg peptide immobilised, human serum IgG, 10% breakthrough; 1 wash with 0.1 N NaOH
human IgG1 (human) [5] = experiment: SPR, BIAcore T200, IgG immobilised on CM5 chip, peptide as analyte
[6] = target: human serum-derived IgG (manufactured by Sigma-Aldrich Co. LLC); experiment: 1 mL column with 1 mg peptide immobilised, human serum IgG; 2 washes with 0.1 N NaOH
[7] = target: human serum-derived IgG (manufactured by Sigma-Aldrich Co. LLC); experiment: 1 mL column with 1 mg peptide immobilised, human serum IgG; 4 washes with 0.1 N NaOH
[8] = target: human serum-derived IgG (manufactured by Sigma-Aldrich Co. LLC); experiment: 1 mL column with 1 mg peptide immobilised, human serum IgG, 10% breakthrough; 30 washes with 0.1 N NaOH
[9] = target: human serum-derived IgG (manufactured by Sigma-Aldrich Co. LLC); experiment: 1 mL column with 1 mg peptide immobilised, human serum IgG, 10% breakthrough; 2 washes with 0.1 N NaOH
[10] = target: human serum-derived IgG (manufactured by Sigma-Aldrich Co. LLC); experiment: 1 mL column with 1 mg peptide immobilised, human serum IgG 1 mg/mL at 1 mL/min; 4 washes with 0.1 N NaOH
[11] = target: human serum-derived IgG (manufactured by Sigma-Aldrich Co. LLC); experiment: 1 mL column with 1 mg peptide immobilised, human serum IgG, 10% breakthrough; 5 washes with 0.1 N NaOH
[12] = target: human serum-derived IgG (manufactured by Sigma-Aldrich Co. LLC); experiment: 1 mL column with 1 mg peptide immobilised, human serum IgG 1 mg/mL at 1 mL/min; 20 washes with 0.1 N NaOH
[13] = target: human serum-derived IgG (manufactured by Sigma-Aldrich Co. LLC); experiment: 1 mL column with 1 mg peptide immobilised, human serum IgG 1 mg/mL at 1 mL/min; 2 washes with 0.1 N NaOH
[14] = target: human serum-derived IgG (manufactured by Sigma-Aldrich Co. LLC); experiment: 1 mL column with 1 mg peptide immobilised, human serum IgG 1 mg/mL at 1 mL/min; 10 washes with 0.1 N NaOH
[15] = target: human serum-derived IgG (manufactured by Sigma-Aldrich Co. LLC); experiment: 1 mL column with 1 mg peptide immobilised, human serum IgG; 20 washes with 0.1 N NaOH
human IgG1 (human) [16] = experiment: SPR, BIAcore T200, IgG immobilised on CM5 chip
[17] = target: human serum-derived IgG (manufactured by Sigma-Aldrich Co. LLC); experiment: 1 mL column with 1 mg peptide immobilised, human serum IgG; 5 washes with 0.1 N NaOH
[18] = target: human serum-derived IgG (manufactured by Sigma-Aldrich Co. LLC); experiment: 1 mL column with 1 mg peptide immobilised, human serum IgG, 10% breakthrough; 4 washes with 0.1 N NaOH
[19] = target: human serum-derived IgG (manufactured by Sigma-Aldrich Co. LLC); experiment: 1 mL column with 1 mg peptide immobilised, human serum IgG 1 mg/mL at 1 mL/min; 30 washes with 0.1 N NaOH
[20] = target: human serum-derived IgG (manufactured by Sigma-Aldrich Co. LLC); experiment: 1 mL column with 1 mg peptide immobilised, human serum IgG; 10 washes with 0.1 N NaOH
[21] = target: human serum-derived IgG (manufactured by Sigma-Aldrich Co. LLC); experiment: 1 mL column with 1 mg peptide immobilised, human serum IgG, 10% breakthrough; 3 washes with 0.1 N NaOH
[22] = target: human serum-derived IgG (manufactured by Sigma-Aldrich Co. LLC); experiment: peptide-immobilised column, human serum IgG, 10% breakthrough
[23] = target: human serum-derived IgG (manufactured by Sigma-Aldrich Co. LLC); experiment: 1 mL column with 1 mg peptide immobilised, human serum IgG 1 mg/mL at 1 mL/min; 5 washes with 0.1 N NaOH
[24] = target: human serum-derived IgG (manufactured by Sigma-Aldrich Co. LLC); experiment: 1 mL column with 1 mg peptide immobilised, human serum IgG; 30 washes with 0.1 N NaOH
[25] = target: human serum-derived IgG (manufactured by Sigma-Aldrich Co. LLC); experiment: 1 mL column with 1 mg peptide immobilised, human serum IgG, 10% breakthrough; 20 washes with 0.1 N NaOH
[26] = target: human serum-derived IgG (manufactured by Sigma-Aldrich Co. LLC); experiment: 1 mL column with 1 mg peptide immobilised, human serum IgG, 10% breakthrough; 10 washes with 0.1 N NaOH
[27] = target: human serum-derived IgG (manufactured by Sigma-Aldrich Co. LLC); experiment: 1 mL column with 1 mg peptide immobilised, human serum IgG; 3 washes with 0.1 N NaOH

initial value of DBC of peptide column (human serum-derived IgG): 2.3 mg/mL-column
reduction of affinity as compared with the original peptide (human IgG1; Kd relative to original disulfide IgG-binding peptide): about 500 fold
kd (human IgG1; SPR, IgG immobilized on CM5 chip, HBS-EP pH 7.4): 0.005
ka (human IgG1; SPR, IgG immobilized on CM5 chip, HBS-EP pH 7.4, in M-1 s-1 (unit assumed)): 1.00E+03
Molecule: CC(C)C[C@@H]1NC(=O)[C@H](CCC(=O)O)NC(=O)CNC(=O)[C@H](CCCNC(=N)N)NC(=O)[C@H](Cc2c[nH]cn2)NC(=O)[C@H](Cc2ccc(O)cc2)NC(=O)[C@H](C)NC(=O)[C@@H](NC(=O)[C@H](CC(=O)O)NC(=O)[C@@H]2CCCN2C(=O)CNC(=O)[C@H](CO)NC(=O)CNC(=O)CNC(=O)[C@H](CO)NC(=O)CN)CSCC(=O)CSC[C@@H](C(=O)N[C@H](C(=O)N[C@@H](Cc2ccccc2)C(=O)N[C@@H](Cc2c[nH]cn2)C(=O)O)[C@@H](C)O)NC(=O)[C@H](Cc2c[nH]c3ccccc23)NC(=O)[C@H](C(C)C)NC1=O [IgG-BP-LongGS 1,3-dichloroacetone] (H-GSGGSGPDCAYHRGELVWCTFH-OH; linker 9-19 via CH2COCH2; N-terminus and C-terminus assumed)
Kd (IgG): 4900 nM

Maximum binding capacity [1]: 9.88 mg
Variation (%) in maximum binding capacity [2]: 100%
Maximum binding capacity [3]: 9.68 mg
Dynamic binding capacity [4]: 12.8 mg/mL
Variation (%) in dynamic binding capacity [4]: 100%
Kd (human IgG1 (human) [5]): 45.6 nM
Variation (%) in maximum binding capacity [6]: 100%
Variation (%) in maximum binding capacity [7]: 104%
Dynamic binding capacity [8]: 11.6 mg/mL
Variation (%) in dynamic binding capacity [8]: 90.6%
Dynamic binding capacity [9]: 12.8 mg/mL
Variation (%) in dynamic binding capacity [9]: 100%
Maximum binding capacity [10]: 10.1 mg
Dynamic binding capacity [11]: 12.4 mg/mL
Variation (%) in dynamic binding capacity [11]: 96.9%
Maximum binding capacity [12]: 8.35 mg
Maximum binding capacity [13]: 9.7 mg
Maximum binding capacity [14]: 9.32 mg
Variation (%) in maximum binding capacity [15]: 86.3%
fold reduction of affinity against the original peptide (human IgG1 (human) [16]): 5 fold
Variation (%) in maximum binding capacity [17]: 103%
Dynamic binding capacity [18]: 12.2 mg/mL
Variation (%) in dynamic binding capacity [18]: 95.3%
Maximum binding capacity [19]: 8.78 mg
Variation (%) in maximum binding capacity [20]: 96.3%
Dynamic binding capacity [21]: 12.2 mg/mL
Variation (%) in dynamic binding capacity [21]: 95.3%
DBC relative to the original IgG-binding peptide-immobilized column [22]: 74%
Maximum binding capacity [23]: 9.93 mg
Variation (%) in maximum binding capacity [24]: 90.7%
Dynamic binding capacity [25]: 12.4 mg/mL
Variation (%) in dynamic binding capacity [25]: 96.9%
Dynamic binding capacity [26]: 12.2 mg/mL
Variation (%) in dynamic binding capacity [26]: 95.3%
Variation (%) in maximum binding capacity [27]: 102%
B1: 1,1-dichloroacetone-crosslinked cyclic peptide of IgG-BP-LongGS (peptide)
peptide: GSGGSGPDCAYHRGELVWCTFH
modifications: not fully specified; the thiol groups of the two Cys residues crosslinked with 1,1-dichloroacetone (1,1-Dichloro-2-propanone) in place of the disulfide bond; Fmoc removed
